# pIC50, pKd: −log10 of the molar value.
# Columns and labels:
# [1] = target: HLA-A*26:02; test: IEDB peptide-MHC binding, purified MHC/competitive/fluorescence; filed as Kd, often an IC50 or EC50 that approximates it; ≥ and ≤ were set here for values at or beyond the usual limits of such assays
# [2] = target: HLA-A*68:02; test: as above; settings: source organism: Giardia lamblia ATCC 50803
# [3] = target: HLA-A*02:03; test: as above; settings: source organism: Giardia lamblia ATCC 50803
# [4] = target: HLA-B*15:01; test: as above; settings: source organism: Giardia lamblia ATCC 50803
# [5] = target: HLA-A*02:01; test: as above; settings: source organism: Giardia lamblia ATCC 50803
# [6] = target: HLA-A*30:01; test: as above
# [7] = target: HLA-B*39:01; test: as above; settings: source organism: Giardia lamblia ATCC 50803
# [8] = target: HLA-A*26:03; test: as above; settings: source organism: Giardia lamblia ATCC 50803
# [9] = target: HLA-B*18:01; test: IEDB peptide-MHC binding, purified MHC/direct/fluorescence; filed as Kd, often an IC50 or EC50 that approximates it; ≥ and ≤ were set here for values at or beyond the usual limits of such assays; settings: source organism: Giardia lamblia ATCC 50803
# [10] = target: HLA-A*01:01; test: as above
# [11] = target: HLA-B*15:17; test: as above
# [12] = target: HLA-A*26:01; test: as above
# [13] = target: HLA-A*31:01; test: as above; settings: source organism: Giardia lamblia ATCC 50803
# [14] = target: HLA-B*58:01; test: as above
# [15] = target: HLA-B*57:01; test: as above
# [16] = target: HLA-A*11:01; test: as above; settings: source organism: Giardia lamblia ATCC 50803
# [17] = target: HLA-B*07:02; test: as above
# [18] = target: HLA-A*26:02; test: as above; settings: source organism: Escherichia coli O157:H7 str. EDL933
# [19] = target: HLA-B*15:01; test: IEDB peptide-MHC binding, purified MHC/competitive/fluorescence; ≥ and ≤ were set here for values at or beyond the usual limits of such assays; settings: source organism: Vaccinia virus WR
# [20] = target: HLA-A*11:01; test: as above; settings: source organism: Vaccinia virus WR
# [21] = target: HLA-A*26:01; test: IEDB peptide-MHC binding, purified MHC/competitive/fluorescence; filed as Kd, often an IC50 or EC50 that approximates it; ≥ and ≤ were set here for values at or beyond the usual limits of such assays; settings: source organism: Vaccinia virus WR
# [22] = target: HLA-B*35:01; test: as above; settings: source organism: Vaccinia virus WR
# [23] = target: HLA-A*31:01; test: as above; settings: source organism: Vaccinia virus WR
# [24] = target: HLA-A*11:01; test: as above; settings: source organism: Vaccinia virus WR
# [25] = target: HLA-A*68:02; test: IEDB peptide-MHC binding, purified MHC/direct/fluorescence; filed as Kd, often an IC50 or EC50 that approximates it; ≥ and ≤ were set here for values at or beyond the usual limits of such assays; settings: source organism: Camelpox virus M-96
# [26] = target: HLA-B*08:03; test: as above; settings: source organism: Variola virus
# [27] = target: HLA-B*15:01; test: as above; settings: source organism: Camelpox virus M-96
# [28] = target: HLA-A*02:01; test: as above; settings: source organism: Camelpox virus M-96
# [29] = target: HLA-B*48:01; test: as above; settings: source organism: Camelpox virus M-96
# [30] = target: HLA-A*69:01; test: as above; settings: source organism: Camelpox virus M-96
# [31] = target: HLA-B*15:09; test: as above; settings: source organism: Variola virus
# [32] = target: HLA-B*46:01; test: as above; settings: source organism: Camelpox virus M-96
# [33] = target: HLA-B*27:05; test: as above; settings: source organism: Camelpox virus M-96
# [34] = target: HLA-B*08:01; test: as above; settings: source organism: Variola virus
# [35] = target: HLA-B*15:03; test: IEDB peptide-MHC binding, purified MHC/competitive/radioactivity; filed as Kd, often an IC50 or EC50 that approximates it; ≥ and ≤ were set here for values at or beyond the usual limits of such assays; settings: source organism: Vaccinia virus WR
# [36] = source organism: Giardia lamblia ATCC 50803
# [37] = source organism: Vaccinia virus WR
# [38] = source organism: Camelpox virus M-96
sequence,measurement,setting,value
FMKVKFEAL,pKd,[1]; [36],≤ 4.70
same,pKd,[2],5.34
same,pKd,[3],7.53
same,pKd,[4],6.78
same,pKd,[5],6.66
same,pKd,[6]; [36],5.37
same,pKd,[7],≤ 4.70
same,pKd,[8],≤ 4.70
same,pKd,[9],≤ 4.70
same,pKd,[10]; [36],≤ 4.70
same,pKd,[11]; [36],≤ 4.70
same,pKd,[12]; [36],≤ 4.70
same,pKd,[13],≤ 4.70
same,pKd,[14]; [36],≤ 4.70
same,pKd,[15]; [36],≤ 4.70
same,pKd,[16],≤ 4.70
same,pKd,[17]; [36],≤ 4.70
FTHREQLFM,pKd,[18],7.55
same,pKd,[12]; source organism: Escherichia coli O157:H7 str. EDL933,7.23
IQFMHEQGY,pIC50,[19],5.17
same,pIC50,[20],≤ 3.97
same,pKd,[1]; [37],≤ 4.70
same,pKd,[21],≤ 4.70
same,pKd,[22],6.98
same,pKd,[6]; [37],8.62
same,pKd,[23],≤ 4.70
same,pKd,[24],≤ 4.70
same,pKd,[25],≤ 4.70
same,pKd,[26],≤ 4.70
same,pKd,[10]; [38],≤ 4.70
same,pKd,[11]; [38],6.54
same,pKd,[27],7.28
same,pKd,[28],≤ 4.70
same,pKd,[29],≤ 4.70
same,pKd,[30],≤ 4.70
same,pKd,[31],≤ 4.70
same,pKd,[14]; [38],≤ 4.70
same,pKd,[15]; [38],5.71
same,pKd,[32],≤ 4.70
same,pKd,[33],6.03
same,pKd,[17]; [38],≤ 4.70
same,pKd,[34],≤ 4.70
same,pKd,[35],8.44

# Source: the Immune Epitope Database (IEDB)
